Experimental findings from publication PMC8164019 (Methods in molecular biology (Clifton, N.J.), 2020) are described below.

This series concerns the molecule itself. In words: negative-stain EM.

B1: MxB after cleavage of the MBP tag by HRV-3C protease (natural protein, human, UniProt P20592 1-715, looked up)
chain: MSKAHKPWPYRRRSQFSSRKYLKKEMNSFQQQPPPFGTVPPQMMFPPNWQGAEKDAAFLAKDFNFLTLNNQPPPGNRSQPRAMGPENNLYSQYEQKVRPCIDLIDSLRALGVEQDLALPAIAVIGDQSSGKSSVLEALSGVALPRGSGIVTRCPLVLKLKKQPCEAWAGRISYRNTELELQDPGQVEKEIHKAQNVMAGNGRGISHELISLEITSPEVPDLTIIDLPGITRVAVDNQPRDIGLQIKALIKKYIQRQQTINLVVVPCNVDIATTEALSMAHEVDPEGDRTIGILTKPDLMDRGTEKSVMNVVRNLTYPLKKGYMIVKCRGQQEITNRLSLAEATKKEITFFQTHPYFRVLLEEGSATVPRLAERLTTELIMHIQKSLPLLEGQIRESHQKATEELRRCGADIPSQEADKMFFLIEKIKMFNQDIEKLVEGEEVVRENETRLYNKIREDFKNWVGILATNTQKVKNIIHEEVEKYEKQYRGKELLGFVNYKTFEIIVHQYIQQLVEPALSMLQKAMEIIQQAFINVAKKHFGEFFNLNQTVQSTIEDIKVKHTAKAENMIQLQFRMEQMVFCQDQIYSVVLKKVREEIFNPLGTPSQNMKLNSHFPSNESSVSSFTEIGIHLNAYFLETSKRLANQIPFIIQYFMLRENGDSLQKAMMQILQEKNRYSWLLQEQSETATKRRILKERIYRLTQARHALCQFSSKEIH
As for B1, the binding result is listed as “binds”.
